As a reminder, the Kd is the concentration at which binding is half-saturated. High values mean a looser complex, low ones a tighter complex.

Residue numbers refer to the chain shown, from its start.

The target in one series is T1, His-APOBEC2 E100A (Mus musculus, UniProt Q9WV35 1-224, E100A).
T1 sequence: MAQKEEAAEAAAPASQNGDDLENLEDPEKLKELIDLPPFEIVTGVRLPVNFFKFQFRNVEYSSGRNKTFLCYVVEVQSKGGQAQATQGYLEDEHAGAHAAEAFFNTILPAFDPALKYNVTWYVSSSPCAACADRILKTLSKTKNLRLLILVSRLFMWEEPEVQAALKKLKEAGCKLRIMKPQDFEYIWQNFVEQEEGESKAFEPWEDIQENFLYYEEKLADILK
Briefly: MST.

In the next series the target is T2, His-APOBEC2 (Mus musculus, UniProt Q9WV35 1-224).
T2 sequence: T1 sequence with A100E
Briefly: MST.

As for TCTCAAGAAAAAAAAAAAAAGAC (ssDNA) [A-tract (poly-A) motif], the binding result with His-APOBEC2 E100A was “no binding”. As for GGCGGCGCGGCCCCGCCCCCTCCTCCGGC (ssDNA) [SP/KLF motif], in the series with His-APOBEC2, binding was characterised by a dissociation constant (Kd) of 926 ± 243 nM. For the same molecule, the binding result in the series with His-APOBEC2 E100A was “no binding”.
